The values that follow come from paper PMC3702631 (Structure (London, England : 1993), 2013).

This data set concerns the molecule itself. The experiment in a line: SEC.

B1: mouse TBK1 C-terminal truncation, residues 1-657 (GST tag cleaved) (domain or fragment, UniProt Q9WUN2 1-657, looked up)
chain: MQSTSNHLWLLSDILGQGATANVFRGRHKKTGDLYAVKVFNNISFLRPVDVQMREFEVLKKLNHKNIVKLFAIEEETTTRHKVLIMEFCPCGSLYTVLEEPSNAYGLPESEFLIVLRDVVGGMNHLRENGIVHRDIKPGNIMRVIGEDGQSVYKLTDFGAARELEDDEQFVSLYGTEEYLHPDMYERAVLRKDHQKKYGATVDLWSVGVTFYHAATGSLPFRPFEGPRRNKEVMYKIITGKPSGAISGVQKAENGPIDWSGDMPLSCSLSQGLQALLTPVLANILEADQEKCWGFDQFFAETSDVLHRMVIHVFSLQHMTAHKIYIHSYNTAAVFHELVYKQTKIVSSNQELIYEGRRLVLELGRLAQHFPKTTEENPIFVTSREQLNTVGLRYEKISLPKIHPRYDLDGDASMAKAVTGVVCYACRTASTLLLYQELMRKGVRWLVELVKDDYNETVHKKTEVVITLDFCIRNIEKTVKVYEKLMKVNLEAAELGEISDIHTKLLRLSSSQGTIESSLQDISSRLSPGGLLADTWAHQEGTHPRDRNVEKLQVLLNCITEIYYQFKKDKAERRLAYNEEQIHKFDKQKLYYHATKAMSHFSEECVRKYEAFKDKSEEWMRKMLHLRKQLLSLTNQCFDIEEEVSKYQDYTNELQET
In the case of B1, the “stoichiometry N” value was determined as 2.

B2: full-length mouse TBK1 (GST tag cleaved) (enzyme, UniProt Q9WUN2 1-729, looked up)
chain: MQSTSNHLWLLSDILGQGATANVFRGRHKKTGDLYAVKVFNNISFLRPVDVQMREFEVLKKLNHKNIVKLFAIEEETTTRHKVLIMEFCPCGSLYTVLEEPSNAYGLPESEFLIVLRDVVGGMNHLRENGIVHRDIKPGNIMRVIGEDGQSVYKLTDFGAARELEDDEQFVSLYGTEEYLHPDMYERAVLRKDHQKKYGATVDLWSVGVTFYHAATGSLPFRPFEGPRRNKEVMYKIITGKPSGAISGVQKAENGPIDWSGDMPLSCSLSQGLQALLTPVLANILEADQEKCWGFDQFFAETSDVLHRMVIHVFSLQHMTAHKIYIHSYNTAAVFHELVYKQTKIVSSNQELIYEGRRLVLELGRLAQHFPKTTEENPIFVTSREQLNTVGLRYEKISLPKIHPRYDLDGDASMAKAVTGVVCYACRTASTLLLYQELMRKGVRWLVELVKDDYNETVHKKTEVVITLDFCIRNIEKTVKVYEKLMKVNLEAAELGEISDIHTKLLRLSSSQGTIESSLQDISSRLSPGGLLADTWAHQEGTHPRDRNVEKLQVLLNCITEIYYQFKKDKAERRLAYNEEQIHKFDKQKLYYHATKAMSHFSEECVRKYEAFKDKSEEWMRKMLHLRKQLLSLTNQCFDIEEEVSKYQDYTNELQETLPQKMLAASGGVKHAMAPIYPSSNTLVEMTLGMKKLKEEMEGVVKELAENNHILERFGSLTMDGGLRNVDCL
Consider B2, for which the “stoichiometry N” value came out at 2.

A word on the stoichiometry N: it is the number of molecules, sites or subunits per partner or assembly.
